Assay [1] addresses T1, Fg treated with contortrixobin (human, UniProt P02671 20-629; P02675 45-491; P02679 27-437).
T1 construct: Fg coated on wells and treated for 30 min at room temperature with contortrixobin from Agkistrodon contortrix contortrix; also called contortrixobin-treated Fg
T1 sequence 1: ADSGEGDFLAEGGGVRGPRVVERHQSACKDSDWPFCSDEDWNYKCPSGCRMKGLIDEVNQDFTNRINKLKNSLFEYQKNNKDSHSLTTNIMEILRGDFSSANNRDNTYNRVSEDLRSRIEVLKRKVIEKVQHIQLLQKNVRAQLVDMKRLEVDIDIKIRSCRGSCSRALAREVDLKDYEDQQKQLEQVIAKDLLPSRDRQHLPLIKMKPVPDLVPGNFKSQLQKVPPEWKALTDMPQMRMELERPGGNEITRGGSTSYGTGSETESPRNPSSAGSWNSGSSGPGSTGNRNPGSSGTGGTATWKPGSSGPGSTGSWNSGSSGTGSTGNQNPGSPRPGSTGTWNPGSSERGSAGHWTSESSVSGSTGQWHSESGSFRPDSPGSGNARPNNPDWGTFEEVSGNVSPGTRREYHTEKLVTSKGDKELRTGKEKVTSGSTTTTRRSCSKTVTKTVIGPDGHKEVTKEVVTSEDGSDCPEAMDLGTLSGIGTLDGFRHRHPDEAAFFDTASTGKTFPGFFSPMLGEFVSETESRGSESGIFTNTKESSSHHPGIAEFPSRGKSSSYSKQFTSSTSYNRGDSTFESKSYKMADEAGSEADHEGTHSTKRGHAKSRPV
T1 sequence 2: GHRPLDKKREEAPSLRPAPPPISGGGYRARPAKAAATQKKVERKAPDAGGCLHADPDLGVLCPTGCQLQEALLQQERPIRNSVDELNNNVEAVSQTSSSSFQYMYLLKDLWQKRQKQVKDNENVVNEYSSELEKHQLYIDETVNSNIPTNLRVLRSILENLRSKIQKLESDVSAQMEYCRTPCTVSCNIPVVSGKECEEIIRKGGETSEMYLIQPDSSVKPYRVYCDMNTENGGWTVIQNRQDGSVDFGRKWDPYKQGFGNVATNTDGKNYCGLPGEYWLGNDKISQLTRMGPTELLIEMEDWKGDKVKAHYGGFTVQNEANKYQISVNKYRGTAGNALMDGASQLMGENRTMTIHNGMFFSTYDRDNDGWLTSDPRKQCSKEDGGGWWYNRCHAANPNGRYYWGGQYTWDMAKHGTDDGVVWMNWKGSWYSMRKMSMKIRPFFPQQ
T1 sequence 3: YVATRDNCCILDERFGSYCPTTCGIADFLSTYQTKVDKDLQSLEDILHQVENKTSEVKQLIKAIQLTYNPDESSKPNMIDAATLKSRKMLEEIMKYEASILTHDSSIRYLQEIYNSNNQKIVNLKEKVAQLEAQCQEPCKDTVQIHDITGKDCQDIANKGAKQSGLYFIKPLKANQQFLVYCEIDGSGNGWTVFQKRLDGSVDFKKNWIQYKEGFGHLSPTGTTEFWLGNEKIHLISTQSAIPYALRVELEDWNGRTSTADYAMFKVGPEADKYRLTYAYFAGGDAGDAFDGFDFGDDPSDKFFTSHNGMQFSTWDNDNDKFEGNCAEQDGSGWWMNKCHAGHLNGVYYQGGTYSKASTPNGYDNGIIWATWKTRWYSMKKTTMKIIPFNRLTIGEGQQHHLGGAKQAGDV
As to the kind of experiment: ELISA of Example 2, Fg-coated wells pretreated with protease, biotin labeled rSdrG(50-597). (An ELISA detects its analyte on a solid surface through an enzyme-linked reagent.)

Another assay concerns the target T2, thrombin digested Fg (human, UniProt P02671 36-629; P02675 45-491; P02679 27-437).
T2 construct: Fg coated on wells and treated with 1.0 NIH unit/ml thrombin for 30 min; also called thrombin-treated Fg; Fg treated with thrombin
T2 sequence 1: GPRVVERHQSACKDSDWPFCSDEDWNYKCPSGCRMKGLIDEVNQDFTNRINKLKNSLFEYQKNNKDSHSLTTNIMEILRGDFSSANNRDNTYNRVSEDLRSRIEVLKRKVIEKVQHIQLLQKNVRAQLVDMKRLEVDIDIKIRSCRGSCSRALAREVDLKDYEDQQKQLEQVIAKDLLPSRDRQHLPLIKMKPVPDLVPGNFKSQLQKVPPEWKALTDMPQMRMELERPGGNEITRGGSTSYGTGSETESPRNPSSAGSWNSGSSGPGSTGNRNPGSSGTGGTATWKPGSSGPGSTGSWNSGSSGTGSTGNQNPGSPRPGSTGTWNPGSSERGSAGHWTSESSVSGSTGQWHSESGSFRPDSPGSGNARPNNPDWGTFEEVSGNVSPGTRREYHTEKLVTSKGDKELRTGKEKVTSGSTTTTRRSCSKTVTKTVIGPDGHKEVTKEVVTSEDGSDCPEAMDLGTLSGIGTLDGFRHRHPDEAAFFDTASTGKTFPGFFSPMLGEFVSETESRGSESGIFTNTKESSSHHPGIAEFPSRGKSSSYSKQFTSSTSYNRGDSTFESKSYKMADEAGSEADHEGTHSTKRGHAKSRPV
T2 sequence 2: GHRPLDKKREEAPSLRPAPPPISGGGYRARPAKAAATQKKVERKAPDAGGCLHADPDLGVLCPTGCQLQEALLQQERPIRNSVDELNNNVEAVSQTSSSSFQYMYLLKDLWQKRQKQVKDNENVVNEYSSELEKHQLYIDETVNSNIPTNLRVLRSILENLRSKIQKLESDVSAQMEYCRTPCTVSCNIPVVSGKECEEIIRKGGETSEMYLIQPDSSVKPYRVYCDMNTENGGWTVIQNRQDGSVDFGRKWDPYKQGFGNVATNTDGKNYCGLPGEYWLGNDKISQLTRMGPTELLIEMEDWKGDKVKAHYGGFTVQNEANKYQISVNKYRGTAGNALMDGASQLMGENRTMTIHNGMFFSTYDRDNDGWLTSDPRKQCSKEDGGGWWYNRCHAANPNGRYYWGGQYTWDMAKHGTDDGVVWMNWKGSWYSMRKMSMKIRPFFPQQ
T2 sequence 3: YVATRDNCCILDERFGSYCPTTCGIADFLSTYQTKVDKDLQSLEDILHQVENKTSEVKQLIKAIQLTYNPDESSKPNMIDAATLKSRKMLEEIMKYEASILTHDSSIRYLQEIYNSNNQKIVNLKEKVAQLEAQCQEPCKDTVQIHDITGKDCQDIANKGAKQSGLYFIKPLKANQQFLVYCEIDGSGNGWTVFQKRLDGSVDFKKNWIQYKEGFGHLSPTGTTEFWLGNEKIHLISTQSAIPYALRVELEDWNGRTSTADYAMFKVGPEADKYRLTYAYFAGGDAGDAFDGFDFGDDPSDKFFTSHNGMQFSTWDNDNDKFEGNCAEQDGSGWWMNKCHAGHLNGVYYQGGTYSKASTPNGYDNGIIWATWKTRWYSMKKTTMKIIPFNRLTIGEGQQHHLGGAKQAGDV
As to the kind of experiment: ELISA, Fg-coated wells pretreated with thrombin, biotin labeled rSdrG(50-597).

The next assay deals with T3, Aα chain of Fg (UniProt P02671 20-629).
T3 construct: Chain of native Fg on a Western ligand blot
T3 sequence: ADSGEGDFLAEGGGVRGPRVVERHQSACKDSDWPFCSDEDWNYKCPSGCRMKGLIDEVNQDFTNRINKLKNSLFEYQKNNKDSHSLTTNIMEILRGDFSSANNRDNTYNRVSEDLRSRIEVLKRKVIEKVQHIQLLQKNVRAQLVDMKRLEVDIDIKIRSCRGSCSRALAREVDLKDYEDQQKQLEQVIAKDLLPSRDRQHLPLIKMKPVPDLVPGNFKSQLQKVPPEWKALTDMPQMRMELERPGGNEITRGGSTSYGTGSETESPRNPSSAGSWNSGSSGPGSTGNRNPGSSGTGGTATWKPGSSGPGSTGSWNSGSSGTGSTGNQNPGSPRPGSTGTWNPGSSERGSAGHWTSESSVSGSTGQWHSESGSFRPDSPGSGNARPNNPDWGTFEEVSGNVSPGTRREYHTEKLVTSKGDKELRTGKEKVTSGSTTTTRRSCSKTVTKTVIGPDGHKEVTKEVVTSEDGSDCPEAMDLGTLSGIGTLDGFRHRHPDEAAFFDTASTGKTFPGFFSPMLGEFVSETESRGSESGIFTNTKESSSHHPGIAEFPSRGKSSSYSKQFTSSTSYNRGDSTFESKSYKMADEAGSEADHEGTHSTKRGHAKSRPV
Put plainly: Western ligand blot, biotin labeled rSdrG(50-597).

For a further assay, the target named is T4, fibrinogen (Fg) (human, UniProt P02671 20-629; P02675 31-491; P02679 27-437).
T4 construct: Purified native Fg bought from Enzyme Research Labs, coated on microtiter wells (1 µg); also called human Fg; immobilized Fg
T4 sequence 1: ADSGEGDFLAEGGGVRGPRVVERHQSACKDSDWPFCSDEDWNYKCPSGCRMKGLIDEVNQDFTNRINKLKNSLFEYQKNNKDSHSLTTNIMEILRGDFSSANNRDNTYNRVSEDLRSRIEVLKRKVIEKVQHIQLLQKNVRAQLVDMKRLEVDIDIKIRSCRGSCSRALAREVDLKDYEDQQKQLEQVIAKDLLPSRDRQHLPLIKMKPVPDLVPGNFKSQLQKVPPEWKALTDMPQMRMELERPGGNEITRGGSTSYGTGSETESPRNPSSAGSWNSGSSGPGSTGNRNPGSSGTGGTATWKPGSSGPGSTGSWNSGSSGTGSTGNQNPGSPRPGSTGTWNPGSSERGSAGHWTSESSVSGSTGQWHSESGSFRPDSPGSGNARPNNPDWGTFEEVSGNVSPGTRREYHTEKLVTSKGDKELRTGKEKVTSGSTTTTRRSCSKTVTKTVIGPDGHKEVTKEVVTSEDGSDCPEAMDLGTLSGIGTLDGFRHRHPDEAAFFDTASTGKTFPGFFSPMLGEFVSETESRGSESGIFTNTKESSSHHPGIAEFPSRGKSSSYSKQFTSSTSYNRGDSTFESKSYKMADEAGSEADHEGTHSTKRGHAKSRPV
T4 sequence 2: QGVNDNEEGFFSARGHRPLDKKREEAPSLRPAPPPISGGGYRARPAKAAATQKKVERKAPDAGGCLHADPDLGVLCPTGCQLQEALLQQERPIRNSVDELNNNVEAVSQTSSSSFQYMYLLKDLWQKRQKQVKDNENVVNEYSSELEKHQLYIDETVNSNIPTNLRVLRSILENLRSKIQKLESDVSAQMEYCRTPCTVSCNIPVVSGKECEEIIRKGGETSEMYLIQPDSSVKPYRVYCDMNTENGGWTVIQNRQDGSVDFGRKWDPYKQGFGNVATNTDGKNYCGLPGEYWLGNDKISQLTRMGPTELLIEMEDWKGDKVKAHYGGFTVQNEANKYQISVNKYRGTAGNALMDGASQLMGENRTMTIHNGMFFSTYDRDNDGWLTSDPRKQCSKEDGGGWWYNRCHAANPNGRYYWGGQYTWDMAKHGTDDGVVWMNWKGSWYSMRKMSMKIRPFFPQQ
T4 sequence 3: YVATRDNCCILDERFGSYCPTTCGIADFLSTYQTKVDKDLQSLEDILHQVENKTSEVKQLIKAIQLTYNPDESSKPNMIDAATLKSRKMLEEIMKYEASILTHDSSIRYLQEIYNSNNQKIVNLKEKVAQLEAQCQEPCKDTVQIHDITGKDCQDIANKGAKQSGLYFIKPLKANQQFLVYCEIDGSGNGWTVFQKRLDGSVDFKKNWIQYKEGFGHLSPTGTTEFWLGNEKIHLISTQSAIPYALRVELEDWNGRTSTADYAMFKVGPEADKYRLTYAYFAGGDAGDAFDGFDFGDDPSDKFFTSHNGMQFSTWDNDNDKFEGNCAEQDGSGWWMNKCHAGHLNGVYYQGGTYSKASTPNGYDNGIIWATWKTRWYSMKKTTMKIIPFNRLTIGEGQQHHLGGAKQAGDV
Put plainly: ELISA, increasing rSdrG(50-597) on immobilized Fg, anti-His-tag detection; apparent KD.

B1: rSdrG(50-597) (other)
chain: HHHHHHAEENTVQDVKDSNMDDELSDSNDQSSNEEKNDVINNSQSINTDDDNQIKKEETNSNDAIENRSKDITQSTTNVDENEATFLQKTPQDNTQLKEEVVKEPSSVESSNSSMDTAQQPSHTTINSEASIQTSDNEENSRVSDFANSKIIESNTESNKEENTIEQPNKVREDSITSQPSSYKNIDEKISNQDELLNLPINEYENKVRPLSTTSAQPSSKRVTVNQLAAEQGSNVNHLIKVTDQSITEGYDDSDGIIKAHDAENLIYDVTFEVDDKVKSGDTMTVNIDKNTVPSDLTDSFAIPKIKDNSGEIIATGTYDNTNKQITYTFTDYVDKYENIKAHLKLTSYIDKSKVPNNNTKLDVEYKTALSSVNKTITVEYQKPNENRTANLQSMFTNIDTKNHTVEQTIYINPLRYSAKETNVNISGNGDEGSTIIDDSTIIKVYKVGDNQNLPDSNRIYDYSEYEDVTNDDYAQLGNNNDVNINFGNIDSPYIIKVISKYDPNKDDYTTIQQTVTMQTTINEYTGEFRTASYDNTIAFSTSSGQGQGDLPPE
notes: Used biotin labeled in the Western ligand blots and in the ELISAs on protease-treated Fg; also called recombinant SdrG A-region; recombinant form of the N-terminal A-region of SdrG
On to B1, for which the binding result in assay [1] is recorded as “no binding (tested: 25-1000 nM)”; in the assay with thrombin digested Fg, “no binding (tested: 25-1000 nM)”; with Aα chain of Fg, “no binding”. In addition, the Kd in the assay with fibrinogen (Fg) was 90 nM.

The values are drawn from patent US20030044418A1 (TEXAS A AND M UNIVERSITY SYSTEM UNIVERSITY, published 2003).
